{
  "source": "paper doi:10.1101/2025.02.12.637899",
  "about": "“UB-MBX-46 is a potent and selective antagonist of the human P2X7 receptor developed by structure-based drug design” (bioRxiv, 2025)",
  "molecular_target": "the molecule itself",
  "assay": "cryo-EM structure; purified receptor in 20 mM HEPES pH 7.0, 100 mM NaCl, 0.5 mM C12M (DDM); apo, or incubated with 900 uM ATP or with antagonist at 3-4x the molar concentration of the monomer; homotrimer",
  "data": [
    {"protein": "full-length wild-type human P2X7 receptor (receptor, UniProt Q99572 1-595, looked up, palmitoylation of residues on the C-cys anchor; limited glycosylation, acylation and palmitoylation modelled where density allowed, P2X7 receptor (P2X purinoceptor 7), human, full-length wild type, no mutations or truncations; UniProt Q99572; The construct carries a C-terminal GFP, a 3C protease site and a histidine tag; the protein was digested with HRV 3C protease before SEC; also called hP2X7R; hP2X7; not shown: GFP, C-terminal, cleaved) MPACCSCSDVFQYETNKVTRIQSMNYGTIKWFFHVIIFSYVCFALVSDKLYQRKEPVISSVHTKVKGIAEVKEEIVENGVKKLVHSVFDTADYTFPLQGNSFFVMTNFLKTEGQEQRLCPEYPTRRTLCSSDRGCKKGWMDPQSKGIQTGRCVVYEGNQKTCEVSAWCPIEAVEEAPRPALLNSAENFTVLIKNNIDFPGHNYTTRNILPGLNITCTFHKTQNPQCPIFRLGDIFRETGDNFSDVAIQGGIMGIEIYWDCNLDRWFHHCRPKYSFRRLDDKTTNVSLYPGYNFRYAKYYKENNVEKRTLIKVFGIRFDILVFGTGGKFDIIQLVVYIGSTLSYFGLAAVFIDFLIDTYSSNCCRSHIYPWCKCCQPCVVNEYYYRKKCESIVEPKPTLKYVSFVDESHIRMVNQQLLGRSLQDVKGQEVPRPAMDFTDLSRLPLALHDTPPIPGQPEEIQLLRKEATPRSRDSPVWCQCGSCLPSQLPESHRCLEELCCRKKPGACITTSELFRKLVLSRHVLQFLLLYQEPLLALDVDSTNSRLRHCAYRCYATWRFGSQDMADFAILPSCCRWRIRKEFPKSEGQYSGFKSPY", "values": [
      {"measurement": "stoichiometry N", "result": 3}
    ]},
    {"protein": "full-length wild-type mouse P2X7 receptor (receptor, UniProt Q9Z1M0 1-595, looked up, palmitoylation of residues on the C-cys anchor; limited glycosylation, acylation and palmitoylation modelled where density allowed, P2X7 receptor (P2X purinoceptor 7), mouse, full-length wild type, no mutations or truncations; UniProt Q9Z1M0; The construct carries a C-terminal GFP, a 3C protease site and a histidine tag; digested with HRV 3C protease before SEC; Homotrimer in the apo closed state structure; also called mP2X7R; mP2X7; source: HEK293 GNTI- cells, BacMam, purified (DDM/CHS, TALON, SEC); not shown: GFP, …) MPACCSWNDVLQYETNKVTRIQSTNYGTVKWVLHMIVFSYISFALVSDKLYQRKEPVISSVHTKVKGIAEVTENVTEGGVTKLGHSIFDTADYTFPLQGNSFFVMTNYVKSEGQVQTLCPEYPRRGAQCSSDRRCKKGWMDPQSKGIQTGRCVPYDKTRKTCEVSAWCPTEEEKEAPRPALLRSAENFTVLIKNNIHFPGHNYTTRNILPTMNGSCTFHKTWDPQCSIFRLGDIFQEAGENFTEVAVQGGIMGIEIYWDCNLDSWSHHCRPRYSFRRLDDKNTDESFVPGYNFRYAKYYKENNVEKRTLIKAFGIRFDILVFGTGGKFDIIQLVVYIGSTLSYFGLATVCIDLLINTYSSAFCRSGVYPYCKCCEPCTVNEYYYRKKCESIMEPKPTLKYVSFVDEPHIRMVDQQLLGKSLQVVKGQEVPRPQMDFSDLSRLSLSLHDSPLTPGQSEEIQLLHEEVAPKSGDSPSWCQCGNCLPSRLPEQRRALEELCCRRKPGRCITTSKLFHKLVLSRDTLQLLLLYQDPLLVLGEEATNSRLRHRAYRCYATWRFGSQDMADFAILPSCCRWRIRKEFPKTEGQYSGFKYPY", "values": [
      {"measurement": "stoichiometry N", "result": 3}
    ]}
  ]
}
